# Laboratory results from patent US20230212275.
# Tests used:
# [1] = molecular target: C3b (Complement Technology, Inc, A113) (UniProt P01024)
# [2] = molecular target: C3b (Complement Technology, Inc, A113), P01024
# C3b (Complement Technology, Inc, A113), P01024, sequence (P01024 whole entry, looked up): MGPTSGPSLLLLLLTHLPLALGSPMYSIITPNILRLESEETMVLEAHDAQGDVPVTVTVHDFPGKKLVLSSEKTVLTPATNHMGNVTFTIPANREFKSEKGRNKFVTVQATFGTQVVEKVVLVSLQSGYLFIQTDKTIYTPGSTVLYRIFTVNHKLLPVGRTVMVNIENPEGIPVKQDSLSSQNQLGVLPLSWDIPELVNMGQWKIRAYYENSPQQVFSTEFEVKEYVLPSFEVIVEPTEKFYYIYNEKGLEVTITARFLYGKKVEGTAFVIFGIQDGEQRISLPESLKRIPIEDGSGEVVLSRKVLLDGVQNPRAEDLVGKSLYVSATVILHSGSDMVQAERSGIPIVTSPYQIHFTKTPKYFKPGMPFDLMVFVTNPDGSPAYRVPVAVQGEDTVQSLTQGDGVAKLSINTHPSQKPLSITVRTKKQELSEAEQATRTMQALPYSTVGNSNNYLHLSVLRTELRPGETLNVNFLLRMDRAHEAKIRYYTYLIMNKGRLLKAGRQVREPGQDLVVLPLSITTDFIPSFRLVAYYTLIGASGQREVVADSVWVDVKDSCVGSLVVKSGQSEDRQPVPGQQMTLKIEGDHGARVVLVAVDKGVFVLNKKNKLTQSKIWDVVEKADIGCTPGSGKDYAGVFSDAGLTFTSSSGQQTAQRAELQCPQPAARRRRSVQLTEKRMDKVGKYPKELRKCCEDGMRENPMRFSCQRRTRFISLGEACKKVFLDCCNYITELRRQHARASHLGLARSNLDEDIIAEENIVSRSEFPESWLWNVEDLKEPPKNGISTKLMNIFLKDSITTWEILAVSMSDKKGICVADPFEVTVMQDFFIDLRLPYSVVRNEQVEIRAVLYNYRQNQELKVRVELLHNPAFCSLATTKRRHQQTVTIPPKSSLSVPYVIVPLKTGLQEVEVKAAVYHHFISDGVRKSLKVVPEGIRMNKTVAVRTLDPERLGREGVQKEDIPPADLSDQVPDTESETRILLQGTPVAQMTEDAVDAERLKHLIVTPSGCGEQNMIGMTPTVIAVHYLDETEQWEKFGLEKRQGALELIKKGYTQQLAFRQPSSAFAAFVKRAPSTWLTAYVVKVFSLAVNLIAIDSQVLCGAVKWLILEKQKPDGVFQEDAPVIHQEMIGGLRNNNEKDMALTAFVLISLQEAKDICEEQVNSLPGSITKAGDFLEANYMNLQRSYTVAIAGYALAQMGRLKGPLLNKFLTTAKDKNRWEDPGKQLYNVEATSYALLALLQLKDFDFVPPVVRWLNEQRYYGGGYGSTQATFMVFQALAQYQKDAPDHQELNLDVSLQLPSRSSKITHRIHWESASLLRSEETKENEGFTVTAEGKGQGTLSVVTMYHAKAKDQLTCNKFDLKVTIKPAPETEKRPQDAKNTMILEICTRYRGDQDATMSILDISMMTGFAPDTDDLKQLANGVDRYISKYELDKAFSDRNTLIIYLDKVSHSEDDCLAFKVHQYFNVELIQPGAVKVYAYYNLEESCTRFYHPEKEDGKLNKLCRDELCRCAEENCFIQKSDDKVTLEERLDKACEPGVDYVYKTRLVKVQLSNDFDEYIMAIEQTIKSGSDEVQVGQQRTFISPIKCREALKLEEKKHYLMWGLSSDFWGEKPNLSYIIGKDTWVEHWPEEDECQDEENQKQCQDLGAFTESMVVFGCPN
Molecule,"C3b cleavage assay, iC3b ELISA [1]","C3b cleavage assay, iC3b ELISA [2]"
CFI secreted by HEK293 cells transduced with AAV2 bicistronic vector RC289 (coAflibercept-F2A-coCFI),CFI and FHL1 expressed from all bicistronic vectors is functional and can facilitate breakdown of C3b to iC3b,–
CFI secreted by HEK293 cells transduced with AAV2 bicistronic vector RC313 (coCFI-F2A-coAflibercept),CFI and FHL1 expressed from all bicistronic vectors is functional and can facilitate breakdown of C3b to iC3b,–
"recombinant CFI (Complement Technology, Inc, A138) (protein) KVTYTSQEDLVEKKCLAKKYTHLSCDKVFCQPWQRCIEGTCVCKLPYQCPKNGTAVCATNRRSFPTYCQQKSLECLHPGTKFLNNGTCTAEGKFSVSLKHGNTDSEGIVEVKLVDQDKTMFICKSSWSMREANVACLDLGFQQGADTQRRFKLSDLSINSTECLHVHCRGLETSLAECTFTKRRTMGYQDFADVVCYTQKADSPMDDFFQCVNGKYISQMKACDGINDCGDQSDELCCKACQGKGFHCKSGVCIPSQYQCNGEVDCITGEDEVGCAGFASVTQEETEILTADMDAERRRIKSLLPKLSCGVKNRMHIRRKRIVGGKRAQLGDLPWQVAIKDASGITCGGIYIGGCWILTAAHCLRASKTHRYQIWTTVVDWIHPDLKRIVIEYVDRIIFHENYNAGTYQNDIALIEMKKDGNKKDCELPRSIPACVPWSPYLFQPNDTCIVSGWGREKDNERVFSLQWGEVKLISNCSKFYGNRFYEKEMECAGTYDGSIDACKGDSGGPLVCMDANNVTYVWGVVSWGENCGKPEFPGVYTKVANYFDWISYHVGRPFISQYNV",–,C3b incubated with recombinant CFI and FHL1 served as a positive control; C3b breakdown requires the presence of CFI and FHL1
